The values that follow come from patent US20220332795A1 (ARO BIOTHERAPEUTICS, published 2022).

The target of experiment [1] is T1, human CD71 extracellular domain (human, UniProt P02786 89-760, biotinylated).
T1 construct: extracellular domain; also called hCD71; huCD71 ECD
The experiment is described as follows: solution ELISA screen, signal ratio to HSA control. On the technique in general: ELISA stands for enzyme-linked immunosorbent assay.

Experiment [2] has as its target T2, CD71 apical domain (human, UniProt P02786 189-383, limits assumed).
T2 construct: domain: apical domain
The experiment is described as follows: solution ELISA screen, signal ratio to HSA control.

The target in experiment [3] is T1, human CD71 extracellular domain. The experiment is described as follows: solution ELISA screen (luminescence).
For experiment [4], the target named is T2, CD71 apical domain. The experiment is described as follows: solution ELISA screen (luminescence).

T2 sequence (P02786 189-383 limits assumed): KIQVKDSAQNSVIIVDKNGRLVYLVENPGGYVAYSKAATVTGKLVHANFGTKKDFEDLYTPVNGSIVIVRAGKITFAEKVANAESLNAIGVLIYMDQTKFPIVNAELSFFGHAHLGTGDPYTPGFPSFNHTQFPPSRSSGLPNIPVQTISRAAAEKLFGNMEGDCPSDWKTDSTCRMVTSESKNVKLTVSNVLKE
T1 sequence (P02786 other isoform, or with tags, fused parts or gaps): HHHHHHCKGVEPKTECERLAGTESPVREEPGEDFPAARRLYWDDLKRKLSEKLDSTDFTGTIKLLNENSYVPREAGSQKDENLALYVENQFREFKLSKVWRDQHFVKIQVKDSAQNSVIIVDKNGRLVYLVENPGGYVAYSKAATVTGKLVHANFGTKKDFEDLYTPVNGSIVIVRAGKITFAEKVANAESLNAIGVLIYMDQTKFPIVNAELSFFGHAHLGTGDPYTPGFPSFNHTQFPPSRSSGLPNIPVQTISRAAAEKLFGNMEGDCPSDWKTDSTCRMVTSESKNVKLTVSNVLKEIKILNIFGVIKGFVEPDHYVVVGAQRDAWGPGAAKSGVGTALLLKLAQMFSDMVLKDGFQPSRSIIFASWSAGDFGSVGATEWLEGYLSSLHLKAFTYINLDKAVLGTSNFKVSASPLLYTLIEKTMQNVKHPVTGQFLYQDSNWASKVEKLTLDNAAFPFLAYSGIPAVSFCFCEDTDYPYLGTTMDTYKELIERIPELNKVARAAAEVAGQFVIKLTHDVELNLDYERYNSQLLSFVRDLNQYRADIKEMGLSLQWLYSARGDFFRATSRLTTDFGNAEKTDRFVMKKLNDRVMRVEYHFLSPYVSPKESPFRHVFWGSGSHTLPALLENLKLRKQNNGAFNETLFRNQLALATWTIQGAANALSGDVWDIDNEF

B1: SEQ ID NO 243 (designed binder, not shown: small tags and cut ends)
chain: MLPAPKNLVVSRVTEDSARLSWTAPDAAFDSFFIGYLEPQPPGEAIHLAVPGSERSYDLTGLKPGTEYNVTIQGVKGGFPSVPLAAVFTT
Regarding B1, the “hCD71:HSA” value in experiment [1] worked out at 63.8 ratio. The “apical domain:HSA” value in experiment [2] amounted to 103 ratio. The RLU amounted to 1.97e+06 RLU in experiment [3] and 3.19e+06 RLU in experiment [4].

B2: SEQ ID NO 244 (designed binder, not shown: small tags and cut ends)
chain: MLPAPKNLVVSRVTEDSARLSWTAPDAAFDSFYIAYAEPRPDGEAISLQVPGSERSYDLTGLKPGTEYSVLIHGVKGGLLSSPLGAHFTT
Take B2: the “hCD71:HSA” value in experiment [1] was 97.1 ratio. In experiment [2], the “apical domain:HSA” value stood at 329 ratio. In addition, the RLU in experiment [3] was 1.75e+06 RLU; in experiment [4] it was 5.93e+06 RLU.

B3: SEQ ID NO 264 (designed binder, not shown: small tags and cut ends)
chain: MLPAPKNLVVSRVTEDSARLSWTAPDAAFDSFYIAYAEPRPDGEAINLSVPGSERSYDLTGLKPGTEYSVLIHGVKGGLLSSPLDAYFTT
Consider B3, for which the “hCD71:HSA” value in experiment [1] came to 15.1 ratio. In addition, in experiment [2], the “apical domain:HSA” value is 177 ratio. For the same molecule, the RLU in experiment [3] turned out to be 368000 RLU; in experiment [4], 4.32e+06 RLU.

B4: SEQ ID NO 253 (designed binder, not shown: small tags and cut ends)
chain: MLPAPKNLVVSRVTEDSARLSWTAPDAAFDSFYIAYAEPRPDGEAIILHVPGSERSYDLTGLKPGTEYSVLIHGVKGGLLSSPLDAYFTT
As for B4, the “hCD71:HSA” value in experiment [1] stood at 92 ratio. Moreover, the “apical domain:HSA” value in experiment [2] is 191 ratio. Besides, the RLU in experiment [3] is 3.47e+06 RLU; in experiment [4], 7.21e+06 RLU.

B5: SEQ ID NO 254 (designed binder, not shown: small tags and cut ends)
chain: MLPAPKNLVVSRVTEDSARLSWTAPDAAFDSFYIAYAEPRPDGEAILLAVPGSERSYDLTGLKPGTEYSVLIHGVKGGLLSSPLSAKFTT
For the molecule B5, the “hCD71:HSA” value in experiment [1] was 104 ratio. Also, the “apical domain:HSA” value in experiment [2] was 308 ratio. Also, the RLU in experiment [3] is 2.24e+06 RLU; in experiment [4] it was 6.62e+06 RLU.

B6: SEQ ID NO 257 (designed binder, not shown: small tags and cut ends)
chain: MLPAPKNLVVSRVTEDSARLSWTAPDAAFDSFYIAYAEPRPDGEAIQLGVPGSERSYDLTGLKPGTEYSVLIHGVKGGLLSSPLRAYFTT
Turning to B6, the “hCD71:HSA” value in experiment [1] stood at 26.9 ratio. For the same molecule, the “apical domain:HSA” value in experiment [2] stood at 162 ratio. Also, the RLU in experiment [3] stood at 802000 RLU; in experiment [4], 4.84e+06 RLU.

B7: SEQ ID NO 260 (designed binder, not shown: small tags and cut ends)
chain: MLPAPKNLVVSRVTEDSARLSWTAPDAAFDSFYIAYAEPRPDGEAIHLRVPGSERSYDLTGLKPGTEYNVTIQGVKGGFPSMPLSAIFTT
Regarding B7, in experiment [1], the “hCD71:HSA” value turned out to be 146 ratio. For the same molecule, the “apical domain:HSA” value in experiment [2] was found to be 211 ratio. Further, the RLU was 4.88e+06 RLU in experiment [3] and 7.05e+06 RLU in experiment [4].

B8: SEQ ID NO 245 (designed binder, not shown: small tags and cut ends)
chain: MLPAPKNLVVSRVTEDSARLSWTAPDAAFDSFYIAYAEPRPDGEAIALWVPGSERSYDLTGLKPGTEYSVLIHGVKGGLLSSPLVASFTT
As for B8, the “hCD71:HSA” value in experiment [1] came out at 41.9 ratio. Moreover, the “apical domain:HSA” value in experiment [2] was 259 ratio. For the same molecule, the RLU in experiment [3] turned out to be 774000 RLU; in experiment [4], 4.77e+06 RLU.

B9: SEQ ID NO 267 (designed binder, not shown: small tags and cut ends)
chain: MLPAPKNLVVSRVTEDSARLSWTAPDAAFDSFYIAYAEPRPDGEAIGLWVPGSERSYDLTGLKPGTEYSVLIHGVKGGLLSSPLVAYFTT
On to B9, for which the “hCD71:HSA” value in experiment [1] stood at 19.2 ratio. In addition, the “apical domain:HSA” value in experiment [2] was 186 ratio. The RLU in experiment [3] was determined as 573000 RLU; in experiment [4], 5.55e+06 RLU.

B10: SEQ ID NO 258 (designed binder, not shown: small tags and cut ends)
chain: MLPAPKNLVVSRVTEDSARLSWTAPDAAFDSFYIAYAEPRPDGEAILLEVPGSERSYDLTGLKPGTEYSVLIHGVKGGLLSSPLVAFFTT
B10: the “hCD71:HSA” value in experiment [1] was 204 ratio. For the same molecule, in experiment [2], the “apical domain:HSA” value was 277 ratio. The RLU in experiment [3] was 5.4e+06 RLU; in experiment [4] it was 7.34e+06 RLU.

B11: SEQ ID NO 262 (designed binder, not shown: small tags and cut ends)
chain: MLPAPKNLVVSRVTEDSARLSWTAPDAAFDSFYIAYAEPRPDGEAIVLHVPGSERSYDLTGLKPGTEYSVLIHGVKGGLLSSPLQAIFTT
For B11, the “hCD71:HSA” value in experiment [1] stood at 128 ratio. In addition, the “apical domain:HSA” value in experiment [2] was 231 ratio. Further, the RLU in experiment [3] stood at 3.94e+06 RLU; in experiment [4], 7.13e+06 RLU.

B12: SEQ ID NO 263 (designed binder, not shown: small tags and cut ends)
chain: MLPAPKNLVVSRVTEDSARLSWTAPDAAFDSFYIAYAEPRPDGEAIALVVPGSERSYDLTGLKPGTEYSVLIHGVKGGLLSSPLAANFTT
In the case of B12, in experiment [1], the “hCD71:HSA” value amounted to 24.5 ratio. In addition, in experiment [2], the “apical domain:HSA” value stood at 184 ratio. For the same molecule, the RLU amounted to 584000 RLU in experiment [3] and 4.37e+06 RLU in experiment [4].

B13: SEQ ID NO 249 (designed binder, not shown: small tags and cut ends)
chain: MLPAPKNLVVSRVTEDSARLSWTAPDAAFDSFYIAYAEPRPDGEAIVLEVPGSERSYDLTGLKPGTEYSVLIHGVKGGLLSSPLHANFTT
As to B13, in experiment [1], the “hCD71:HSA” value worked out at 205 ratio. In experiment [2], the “apical domain:HSA” value came to 308 ratio. Moreover, the RLU in experiment [3] was found to be 4.94e+06 RLU; in experiment [4], 7.43e+06 RLU.

B14: SEQ ID NO 246 (designed binder, not shown: small tags and cut ends)
chain: MLPAPKNLVVSRVTEDSARLSWTAPDAAFDSFYIAYAEPRPDGEAIQLHVPGSERSYDLTGLKPGTEYSVLIHGVKGGLLSSPLYAFFTT
Turning to B14, the “hCD71:HSA” value in experiment [1] was 21.3 ratio. Further, the “apical domain:HSA” value in experiment [2] came out at 1.8 ratio. In addition, the RLU in experiment [3] was found to be 548000 RLU; in experiment [4], 47500 RLU.

B15: SEQ ID NO 269 (designed binder, not shown: small tags and cut ends)
chain: MLPAPKNLVVSRVTEDSARLSWTAPDAAFDSFYIAYAEPRPDGEAIWLDVPGSERSYDLTGLKPGTEYSVLIHGVKGGLLSSPLDAYFTT
Regarding B15, the “hCD71:HSA” value in experiment [1] stood at 40.8 ratio. Besides, the “apical domain:HSA” value in experiment [2] was found to be 279 ratio. Besides, the RLU is 812000 RLU in experiment [3] and 5.56e+06 RLU in experiment [4].

B16: SEQ ID NO 252 (designed binder, not shown: small tags and cut ends)
chain: MLPAPKNLVVSRVTEDSARLSWTAPDAAFDSFYIAYAEPRPDGEAIVLHVPGSERSYDLTGLKPGTEYSVLIHGVKGGLLSSPLDAFFTT
For B16, the “hCD71:HSA” value in experiment [1] worked out at 59.6 ratio. For the same molecule, the “apical domain:HSA” value in experiment [2] is 104 ratio. Also, the RLU in experiment [3] is 4.34e+06 RLU; in experiment [4] it was 7.57e+06 RLU.

B17: SEQ ID NO 255 (designed binder, not shown: small tags and cut ends)
chain: MLPAPKNLVVSRVTEDSARLSWTAPDAAFDSFFIGYLEPQPPGEAILLFVPGSERSYDLTGLKPGTEYNVTIQGVKGGFPSTPLSASFTT
On to B17, for which the “hCD71:HSA” value in experiment [1] was found to be 49.1 ratio. Besides, the “apical domain:HSA” value in experiment [2] is 69.3 ratio. Besides, the RLU in experiment [3] was 5.02e+06 RLU; in experiment [4] it was 7.08e+06 RLU.

B18: SEQ ID NO 261 (designed binder, not shown: small tags and cut ends)
chain: MLPAPKNLVVSRVTEDSARLSWTAPDAAFDSFYIAYAEPRPDGEAILLQVPGSERSYDLTGLKPGTEYSVLIHGVKGGLLSSPLIAKFTT
Regarding B18, the “hCD71:HSA” value in experiment [1] was determined as 13.7 ratio. In addition, the “apical domain:HSA” value in experiment [2] worked out at 0.5 ratio. Besides, the values for the RLU in experiment [3] and in experiment [4] were 2.39e+06 RLU and 93200 RLU, respectively.

B19: SEQ ID NO 256 (designed binder, not shown: small tags and cut ends)
chain: MLPAPKNLVVSRVTEDSARLSWTAPDAAFDSFYIAYAEPRPDGEAIQLTVPGSERSYDLTGLKPGTEYSVLIHGVKGGLLSSPLHAYFTT
In the case of B19, in experiment [1], the “hCD71:HSA” value is 27.2 ratio. Besides, the “apical domain:HSA” value in experiment [2] was 76.7 ratio. Moreover, the figures for the RLU in experiment [3] and in experiment [4] were 2.07e+06 RLU and 5.84e+06 RLU, respectively.

B20: SEQ ID NO 259 (designed binder, not shown: small tags and cut ends)
chain: MLPAPKNLVVSRVTEDSARLSWTAPDAAFDSFYIAYAEPRPDGEAIQLGVPGSERSYDLTGLKPGTEYSVLIHGVKGGLLSSPLLAVFTT
Consider B20, for which the “hCD71:HSA” value in experiment [1] was determined as 49.7 ratio. For the same molecule, the “apical domain:HSA” value in experiment [2] is 235 ratio. Also, the RLU in experiment [3] was 1.26e+06 RLU; in experiment [4], 5.96e+06 RLU.

B21: SEQ ID NO 265 (designed binder, not shown: small tags and cut ends)
chain: MLPAPKNLVVSRVTEDSARLSWTAPDAAFDSFYIAYAEPRPDGEAIVLEVPGSERSYDLTGLKPGTEYSVLIHGVKGGLLSSPLTASFTT
In the case of B21, in experiment [1], the “hCD71:HSA” value was 188 ratio. The “apical domain:HSA” value in experiment [2] amounted to 235 ratio. Besides, the results for the RLU in experiment [3] and in experiment [4] were 5.77e+06 RLU and 7.21e+06 RLU, respectively.

B22: SEQ ID NO 266 (designed binder, not shown: small tags and cut ends)
chain: MLPAPKNLVVSRVTEDSARLSWTAPDAAFDSFYIAYAEPRPDGEAIRLQVPGSERSYDLTGLKPGTEYSVLIHGVKGGLLSSPLGASFTT
For B22, the “hCD71:HSA” value in experiment [1] was 11.6 ratio. Besides, the “apical domain:HSA” value in experiment [2] amounted to 117 ratio. In addition, the RLU in experiment [3] is 418000 RLU; in experiment [4], 4.23e+06 RLU.

B23: SEQ ID NO 247 (designed binder, not shown: small tags and cut ends)
chain: MLPAPKNLVVSRVTEDSARLSWTAPDAAFDSFYIAYAEPRPDGEAILLHVPGSERSYDLTGLKPGTEYSVLIHGVKGGLLSSPLRASFTT
Consider B23, for which the “hCD71:HSA” value in experiment [1] stood at 226 ratio. In addition, the “apical domain:HSA” value in experiment [2] was 394 ratio. The RLU in experiment [3] stood at 4.3e+06 RLU; in experiment [4] it was 7.51e+06 RLU.

B24: SEQ ID NO 250 (designed binder, not shown: small tags and cut ends)
chain: MLPAPKNLVVSRVTEDSARLSWTAPDAAFDSFYIAYAEPRPDGEAILLRVPGSERSYDLTGLKPGTEYSVLIHGVKGGLLSSPLYAKFTT
With B24, in experiment [1], the “hCD71:HSA” value worked out at 15 ratio. The “apical domain:HSA” value in experiment [2] was found to be 114 ratio. Besides, the results for the RLU in experiment [3] and in experiment [4] were 724000 RLU and 5.54e+06 RLU, respectively.

B25: SEQ ID NO 248 (designed binder, not shown: small tags and cut ends)
chain: MLPAPKNLVVSRVTEDSARLSWTAPDAAFDSFYIAYAEPRPDGEAIWLGVPGSERSYDLTGLKPGTEYSVLIHGVKGGLLSSPLHATFTT
Take B25: the “hCD71:HSA” value in experiment [1] was 22.2 ratio. Moreover, in experiment [2], the “apical domain:HSA” value was found to be 160 ratio. The RLU in experiment [3] came out at 756000 RLU; in experiment [4], 5.45e+06 RLU.
